According to article PMC9813921 (Cell reports, 2022):
One block for each molecule: values may come before it.

Tests used:
[1] = molecular target: mCherry-LacRepressor-NLS-PP1γ (UniProt P36873); test: two-hybrid
GFP-RRP1B_(RAxA) (human) = GFP-RRP1B_(RAxA) (human) (UniProt Q14684); test: co-IP
[2] = molecular target: GFP-RRP1B_(S702D) (human) (UniProt Q14684); test: co-IP
[3] = molecular target: His6-tagged PP1α_(7–330) Q20R (UniProt P62136); test: SPR
[4] = molecular target: His6-tagged PP1α_(7–330) Q20R (UniProt P62136 7-330, Q20R); test: SPR
Chain of His6-tagged PP1α_(7–330) Q20R (UniProt P62136 7-330, Q20R) (P62136 7-330 Q20R): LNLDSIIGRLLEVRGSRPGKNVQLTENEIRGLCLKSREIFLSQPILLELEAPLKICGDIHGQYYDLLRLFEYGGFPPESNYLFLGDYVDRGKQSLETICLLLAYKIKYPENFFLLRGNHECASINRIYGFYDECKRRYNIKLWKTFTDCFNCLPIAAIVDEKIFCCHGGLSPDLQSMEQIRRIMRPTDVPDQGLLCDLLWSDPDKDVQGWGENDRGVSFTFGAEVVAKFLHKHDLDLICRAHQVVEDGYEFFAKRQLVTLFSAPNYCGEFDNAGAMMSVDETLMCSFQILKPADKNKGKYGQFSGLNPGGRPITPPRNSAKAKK

His6-tagged PP1γ_(7–308) = His6-tagged PP1γ_(7–308) (UniProt P36873 7-308); test: ITC
Chain of His6-tagged PP1γ_(7–308) (P36873 7-308): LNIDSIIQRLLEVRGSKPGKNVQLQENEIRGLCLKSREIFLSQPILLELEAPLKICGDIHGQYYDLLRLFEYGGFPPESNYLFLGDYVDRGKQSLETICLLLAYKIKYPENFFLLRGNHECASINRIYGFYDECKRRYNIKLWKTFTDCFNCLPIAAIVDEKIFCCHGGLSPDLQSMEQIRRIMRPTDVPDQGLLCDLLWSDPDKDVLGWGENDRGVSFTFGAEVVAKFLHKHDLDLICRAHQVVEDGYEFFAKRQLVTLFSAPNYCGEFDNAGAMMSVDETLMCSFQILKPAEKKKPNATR

His6-tagged PP1α_(7–330) = His6-tagged PP1α_(7–330) (UniProt P62136 7-330); test: ITC
Chain of His6-tagged PP1α_(7–330) (P62136 7-330): as the sequence (P62136 7-330 Q20R) above, with R14Q counted along it

His6-tagged PP1γ_(7–323) = His6-tagged PP1γ_(7–323) (UniProt P36873 7-323); test: ITC
Chain of His6-tagged PP1γ_(7–323) (P36873 7-323): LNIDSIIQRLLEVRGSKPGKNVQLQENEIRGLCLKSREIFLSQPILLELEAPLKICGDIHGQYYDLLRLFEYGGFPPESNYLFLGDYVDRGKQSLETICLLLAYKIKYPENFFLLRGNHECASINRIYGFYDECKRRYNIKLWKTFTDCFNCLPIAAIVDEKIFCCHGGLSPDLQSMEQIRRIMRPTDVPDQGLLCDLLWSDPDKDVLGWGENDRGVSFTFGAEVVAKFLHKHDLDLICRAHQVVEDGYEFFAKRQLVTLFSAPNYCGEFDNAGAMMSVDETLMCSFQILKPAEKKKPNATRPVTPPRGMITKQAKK

Chain of His6-tagged PP1α_(7–330) Q20R (UniProt P62136) (P62136 7-330 Q20R): as the sequence (P62136 7-330 Q20R) above
Chain of mCherry-LacRepressor-NLS-PP1γ (P36873 whole entry): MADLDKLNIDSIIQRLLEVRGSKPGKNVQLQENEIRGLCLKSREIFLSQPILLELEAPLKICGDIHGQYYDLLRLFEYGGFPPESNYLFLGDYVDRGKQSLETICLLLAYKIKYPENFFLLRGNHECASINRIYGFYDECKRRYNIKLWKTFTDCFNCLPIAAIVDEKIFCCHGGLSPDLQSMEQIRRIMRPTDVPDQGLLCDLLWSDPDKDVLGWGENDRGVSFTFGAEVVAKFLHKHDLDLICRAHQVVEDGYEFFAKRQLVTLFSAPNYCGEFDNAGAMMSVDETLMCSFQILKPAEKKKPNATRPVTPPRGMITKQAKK

- percent of cells with accumulation at the gene locus [1]: 7%
Molecule: GFP-RRP1B_(S702D) (from UniProt Q14684) (natural protein)

- PP1γ co-precipitated, percent of WT GFP-RRP1B (GFP-RRP1B_(RAxA) (human)): 2.1%
- PP1γ co-precipitated, percent of WT GFP-RRP1B [2]: 4.6%
Molecule: PP1γ, endogenous (from UniProt P36873 1-323) (enzyme)

- Kd [3]: 157 nM
Molecule: RRP1B_(682–727) F715A (from UniProt Q14684) (domain or fragment)

- Kd (His6-tagged PP1γ_(7–308)): 22.6 nM
B1: RRP1B_(677–736) (domain or fragment)
chain: TPSSSKKVTFGLNRNMTAEFKKTDKSILVSPTGPSRVAFDPEQKPLHGVLKTPTSSPASS

Continued, molecule first:

Molecule: RRP1B_(682–727) S702D (from UniProt Q14684) (domain or fragment)
- Kd [3]: 329 nM

Molecule: KKVTFGLNRNMTAEFKKTDKSILVSPTGPSRVAFDPEQKPLHGVLK (domain or fragment) [RRP1B_(682–727)]
- Kd [4]: 22.5 nM

Molecule: KKVTFGLNRNMTAEFKKTDKSILVSPTGPSRVAFDPEQKPLH (domain or fragment) [RRP1B_(682–723)]
- Kd [4]: 114 nM

B2: RRP1B_(657–758) (domain or fragment)
chain: RRAKSSTATHPPGPAVQLNKTPSSSKKVTFGLNRNMTAEFKKTDKSILVSPTGPSRVAFDPEQKPLHGVLKTPTSSPASSPLVAKKPLTTTPRRRPRAMDFF
- Kd (His6-tagged PP1α_(7–330)): 888 nM
- Kd (His6-tagged PP1γ_(7–323)): 40 nM
- Kd (His6-tagged PP1γ_(7–308)): 17.6 nM
